In patent publication US20170334973A1 (published 2017):

T1: EBOV GPcl (Ebola virus (EBOV), UniProt Q05320 33-200; Q05320 502-632)
T1 chain 1: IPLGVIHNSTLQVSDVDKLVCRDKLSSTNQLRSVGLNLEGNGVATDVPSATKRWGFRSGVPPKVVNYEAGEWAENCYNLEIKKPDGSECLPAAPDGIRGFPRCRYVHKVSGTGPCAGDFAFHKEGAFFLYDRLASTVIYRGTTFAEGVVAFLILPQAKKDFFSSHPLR
T1 chain 2: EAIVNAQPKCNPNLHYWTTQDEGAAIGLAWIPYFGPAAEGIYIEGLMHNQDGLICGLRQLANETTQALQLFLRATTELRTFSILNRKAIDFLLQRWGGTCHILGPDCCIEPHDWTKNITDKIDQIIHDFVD

T2: EBOV soluble GP (sGP) (Ebola virus (EBOV), UniProt P60170 33-324)
T2 chain: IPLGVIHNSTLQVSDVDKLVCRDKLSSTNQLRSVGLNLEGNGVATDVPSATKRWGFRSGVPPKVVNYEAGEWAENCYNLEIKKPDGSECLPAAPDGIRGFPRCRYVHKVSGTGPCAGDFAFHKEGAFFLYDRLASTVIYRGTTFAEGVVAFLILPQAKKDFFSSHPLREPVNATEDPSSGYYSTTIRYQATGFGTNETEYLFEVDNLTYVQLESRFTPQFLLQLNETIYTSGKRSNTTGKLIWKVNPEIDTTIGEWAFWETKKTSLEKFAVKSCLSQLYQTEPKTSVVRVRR


Experiments:
Assay in all cases: ELISA
EBOV GPcl = target: T1, EBOV GPcl
EBOV GP[change] = EBOV GP[change] (Ebola virus (EBOV), UniProt Q05320)
EBOV soluble GP (sGP) = target: T2, EBOV soluble GP (sGP)

Binder | EC50 (EBOV GPcl) [ng/mL] | EC50 (EBOV GP[change]) [ng/mL] | EC50 (EBOV soluble GP (sGP)) [ng/mL]
FVM13 (antibody, V domains shown) VH: EVQLVQSGAEVKRPGESLKISCKTSGYTFTSSWISWVRQMPGKGLEWLGSIYPGDSDTRYNPSFQGHVTISADTSIITTHLQWSSLKASDTATYYCVKGSETWGQGVLVTVSS VL: KPMLTQPTSLSASPGASASLTCTFSGGINVAGYNILWYQQKAGSPPRYLLRYKSDSTKDQGSGVPSRFSGSKDASANTGILRISGLQSEDEADYYCAIGHSSGWIFGGGTRLTVL | > 10000 | 3 | 5
FVM02P (antibody, V domains shown) VH: EVQLVESGGGLVQPGGSLRLSCAASGFTGFTFSDYAFYWVRQAPGKGLEWVGFIRGKAYGGTADYAASVKGRFTISRDNSKNTAYLQMSSLKTEDSAVYYCTSQGVTVATPYHWGQGVLVTVSS VL: DIVLTQSPLSLPVTPGEPASISCRSSQSLLHSGGKTYLYWYLQKPGQSPQLLIHEVSNRASGVPDRFSGSGSGTDFTLKISRVEAEDVGVYYCMQGIQLPLTFGGGTKVEIKR | 5 | 10 | –
FVM20 (antibody, V domains shown) VH: EVQLVESGAEVKRPGESLTISCKTSGYSFTGSWISWVRQMPGKGLEWLGSIYPGDSETKYNPSFQGHVTISADKSVTTTYLKWSSLKASDTATYYCVKGSETWGQGVLVTVSS VL: NFMLTQSASLSASPGASASLTCTFSGGINVAGYHIFWYQQNPGSPPRYLLRYKSDSEKDQGSGVPSRFSGSKDASANTGILRISGLQSEDEADYYCAIGHSSGWIFGGGTRLTVL | > 10000 | 7 | 23
FVM01P (antibody, V domains shown) VH: QVQLQESGPGLVKPSETLSLTCTVSGASISNYRWNWIRQPPGKGLEWIGEINGYSGSTNYNPSLKSRVTISKDASKNQFSLKLTSVTAADTAVYYCPIIGGFTLEWFDVWGPGVLVTVSS VL: DVVLTQSPSSLSASVGDRVTITCRASQGIRNYLNWYQQKPRKAPKLLIYAASSLQSGVPSRFSGSGSGTEFTLTISSLQAEDFATYYCLQGYRTPFTFGPGTKLDIKR | 5 | 9 | 5
FVM09 (antibody, V domains shown) VH: EVQLVQSGAEVKRPGESLTISCKTSGYSFTDSWVAWVRQMPGKGLEWLGSIYPGDSETKYNPSFQGHVTISADKSVTTTYLKWSSLKASDTATYYCVKGSETWGQGVLVTVSS VL: QLVLTQPASLSASPGASASLTCTFSGGINVAGYNILWYQQKAGSPPRYLLRYKSDSTKDQGSGVPSRFSGSKDASANTGILRISGLQSEDEADYYCAIGHSSGWIFGGGTRLTVL | – | 5 | 17
FVM04 (antibody, V domains shown) VH: EVQLVQSGGGLVQPGGSMRLSCEASGLSLSDYFMHWVRQAQGKGLEWIGLIQTKAFTYKTEYPAAVKGRFTISRDDSKNTLYLQMSSLKPEDTALYYCIAVTPDFYYWGQGVLVTVSS VL: DVVMTQSPSFLSASVGDRVTITCRASQDITINLNWFQHKPGKAPKRLIYVASRLERGVPSRFSGSGSGTEFTLTISSLQPEDFATYYCQQYNNYPLTFGPGTKLDIKR | 8 | 12 | 7
